Four molecules from PMC12443421 can be followed below.

For the test, the target named is wild-type unmodified 147 bp nucleosome (nucleosome core particle), P04908;P62807;Q71DI3;P62805. The experiment in a line: EMSA. The note with it: chain shown with the change.

B1: KDM5A^CAT (lysine demethylase 5A, residues 1-801), P29375 R264A; R265A; R266A; R271A (protein)
chain: MAGVGPGGYAAEFVPPPECPVFEPSWEEFTDPLSFIGRIRPLAEKTGICKIRPPKDWQPPFACEVKSFRFTPRVQRLNELEAMTRVRLDFLDQLAKFWELQGSTLKIPVVERKILDLYALSKIVASKGGFEMVTKEKKWSKVGSRLGYLPGKGTGSLLKSHYERILYPYELFQSGVSLMGVQMPNLDLKEKVEPEVLSTDTQTSPEPGTRMNILPKRTRRVKTQSESGDVSRNTELKKLQIFGAGPKVVGLAMGTKDKEDEVTAAAKVTNRSDAFNMQMRQRKGTLSVNFVDLYVCMFCGRGNNEDKLLLCDGCDDSYHTFCLIPPLPDVPKGDWRCPKCVAEECSKPREAFGFEQAVREYTLQSFGEMADNFKSDYFNMPVHMVPTELVEKEFWRLVSSIEEDVIVEYGADISSKDFGSGFPVKDGRRKILPEEEEYALSGWNLNNMPVLEQSVLAHINVDISGMKVPWLYVGMCFSSFCWHIEDHWSYSINYLHWGEPKTWYGVPSHAAEQLEEVMRELAPELFESQPDLLHQLVTIMNPNVLMEHGVPVYRTNQCAGEFVVTFPRAYHSGFNQGYNFAEAVNFCTADWLPIGRQCVNHYRRLRRHCVFSHEELIFKMAADPECLDVGLAAMVCKELTLMTEEETRLRESVVQMGVLMSEEEVFELVPDDERQCSACRTTCFLSALTCSCNPERLVCLYHPTDLCPCPMQKKCLRYRYPLEDLPSLLYGVKVRAQSYDTWVSRVTEALSANFNHKKDLIELRVMLEDAEDRKYPENDLFRKLRDAVKEAETCASVAQLL
As a reminder, the Kd is a measure of binding affinity in units of concentration. Read a low Kd as tighter binding. Consider B1, for which the equilibrium dissociation constant (Kd) stood at 10.3 µM.

B2: KDM5A^CAT (lysine demethylase 5A, residues 1-801), P29375 R210A; R217A; R219A; R220A; R232A; R264A; R265A; R266A; R271A; R280A; R282A (protein)
chain: MAGVGPGGYAAEFVPPPECPVFEPSWEEFTDPLSFIGRIRPLAEKTGICKIRPPKDWQPPFACEVKSFRFTPRVQRLNELEAMTRVRLDFLDQLAKFWELQGSTLKIPVVERKILDLYALSKIVASKGGFEMVTKEKKWSKVGSRLGYLPGKGTGSLLKSHYERILYPYELFQSGVSLMGVQMPNLDLKEKVEPEVLSTDTQTSPEPGTAMNILPKATAAVKTQSESGDVSANTELKKLQIFGAGPKVVGLAMGTKDKEDEVTAAAKVTNASDAFNMQMAQAKGTLSVNFVDLYVCMFCGRGNNEDKLLLCDGCDDSYHTFCLIPPLPDVPKGDWRCPKCVAEECSKPREAFGFEQAVREYTLQSFGEMADNFKSDYFNMPVHMVPTELVEKEFWRLVSSIEEDVIVEYGADISSKDFGSGFPVKDGRRKILPEEEEYALSGWNLNNMPVLEQSVLAHINVDISGMKVPWLYVGMCFSSFCWHIEDHWSYSINYLHWGEPKTWYGVPSHAAEQLEEVMRELAPELFESQPDLLHQLVTIMNPNVLMEHGVPVYRTNQCAGEFVVTFPRAYHSGFNQGYNFAEAVNFCTADWLPIGRQCVNHYRRLRRHCVFSHEELIFKMAADPECLDVGLAAMVCKELTLMTEEETRLRESVVQMGVLMSEEEVFELVPDDERQCSACRTTCFLSALTCSCNPERLVCLYHPTDLCPCPMQKKCLRYRYPLEDLPSLLYGVKVRAQSYDTWVSRVTEALSANFNHKKDLIELRVMLEDAEDRKYPENDLFRKLRDAVKEAETCASVAQLL
Molecule B2 displayed a Kd of 14 µM. Where the note is “0-32 µM KDM5A^MutR titration”, this molecule came in with a Kd of 14 µM.

B3: KDM5A^CAT (lysine demethylase 5A, residues 1-801), P29375 R280A; R282A (protein)
chain: MAGVGPGGYAAEFVPPPECPVFEPSWEEFTDPLSFIGRIRPLAEKTGICKIRPPKDWQPPFACEVKSFRFTPRVQRLNELEAMTRVRLDFLDQLAKFWELQGSTLKIPVVERKILDLYALSKIVASKGGFEMVTKEKKWSKVGSRLGYLPGKGTGSLLKSHYERILYPYELFQSGVSLMGVQMPNLDLKEKVEPEVLSTDTQTSPEPGTRMNILPKRTRRVKTQSESGDVSRNTELKKLQIFGAGPKVVGLAMGTKDKEDEVTRRRKVTNRSDAFNMQMAQAKGTLSVNFVDLYVCMFCGRGNNEDKLLLCDGCDDSYHTFCLIPPLPDVPKGDWRCPKCVAEECSKPREAFGFEQAVREYTLQSFGEMADNFKSDYFNMPVHMVPTELVEKEFWRLVSSIEEDVIVEYGADISSKDFGSGFPVKDGRRKILPEEEEYALSGWNLNNMPVLEQSVLAHINVDISGMKVPWLYVGMCFSSFCWHIEDHWSYSINYLHWGEPKTWYGVPSHAAEQLEEVMRELAPELFESQPDLLHQLVTIMNPNVLMEHGVPVYRTNQCAGEFVVTFPRAYHSGFNQGYNFAEAVNFCTADWLPIGRQCVNHYRRLRRHCVFSHEELIFKMAADPECLDVGLAAMVCKELTLMTEEETRLRESVVQMGVLMSEEEVFELVPDDERQCSACRTTCFLSALTCSCNPERLVCLYHPTDLCPCPMQKKCLRYRYPLEDLPSLLYGVKVRAQSYDTWVSRVTEALSANFNHKKDLIELRVMLEDAEDRKYPENDLFRKLRDAVKEAETCASVAQLL
For B3, the dissociation constant Kd was found to be 7.8 µM.

B4: KDM5A^CAT (lysine demethylase 5A, residues 1-801), P29375 R217A; R219A; R220A (protein)
chain: MAGVGPGGYAAEFVPPPECPVFEPSWEEFTDPLSFIGRIRPLAEKTGICKIRPPKDWQPPFACEVKSFRFTPRVQRLNELEAMTRVRLDFLDQLAKFWELQGSTLKIPVVERKILDLYALSKIVASKGGFEMVTKEKKWSKVGSRLGYLPGKGTGSLLKSHYERILYPYELFQSGVSLMGVQMPNLDLKEKVEPEVLSTDTQTSPEPGTRMNILPKATAAVKTQSESGDVSRNTELKKLQIFGAGPKVVGLAMGTKDKEDEVTRRRKVTNRSDAFNMQMRQRKGTLSVNFVDLYVCMFCGRGNNEDKLLLCDGCDDSYHTFCLIPPLPDVPKGDWRCPKCVAEECSKPREAFGFEQAVREYTLQSFGEMADNFKSDYFNMPVHMVPTELVEKEFWRLVSSIEEDVIVEYGADISSKDFGSGFPVKDGRRKILPEEEEYALSGWNLNNMPVLEQSVLAHINVDISGMKVPWLYVGMCFSSFCWHIEDHWSYSINYLHWGEPKTWYGVPSHAAEQLEEVMRELAPELFESQPDLLHQLVTIMNPNVLMEHGVPVYRTNQCAGEFVVTFPRAYHSGFNQGYNFAEAVNFCTADWLPIGRQCVNHYRRLRRHCVFSHEELIFKMAADPECLDVGLAAMVCKELTLMTEEETRLRESVVQMGVLMSEEEVFELVPDDERQCSACRTTCFLSALTCSCNPERLVCLYHPTDLCPCPMQKKCLRYRYPLEDLPSLLYGVKVRAQSYDTWVSRVTEALSANFNHKKDLIELRVMLEDAEDRKYPENDLFRKLRDAVKEAETCASVAQLL
In turn, B4 came in with a Kd of 12 µM.
